Laboratory results published in patent publication US20230242601A1, “PEPTIDE USED TO PREVENT OR TREAT SYNUCLEINOPATHY” (TOHOKU UNIVERSITY, priority 2020, published 2023).
Values belong to the substance of their own block, whether it stands above or below them. Where no end group is shown, it is not given here.

Key:
FABP3 = FABP3 (Homo sapiens, UniProt P05413); assay: QCM (quartz crystal microbalance) binding analysis of immobilized FABP3 with α-synuclein or its peptides; details: for binding to FABP3: His-tagged FABP3 immobilized, 2.5-20 nM analyte, 50 mM Tris-HCl pH 7.4, 25° C.; for binding affinity for FABP3 relative to the natural sequence (SynP130-140) / binding affinity for FABP3 compared with the natural sequence (SynP130-140), in words: immobilized FABP3
Chain of FABP3 (P05413 2-133 limits assumed): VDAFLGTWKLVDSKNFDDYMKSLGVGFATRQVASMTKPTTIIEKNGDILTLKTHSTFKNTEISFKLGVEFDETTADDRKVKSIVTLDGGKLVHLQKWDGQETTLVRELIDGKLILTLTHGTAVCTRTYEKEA
Procedure: The substrate was washed with purified water, then 500 μL of a Ni solution (20 mM HEPES-NaOFH buffer, pH 7.5, 150 mM NaCl, 50 mM EDTA, 10 mM NiSO4) was added, and the substrate was allowed to stand at room temperature for 10 minutes. The substrate was washed with purified water, then 100 nM of FABP3 fused with a His-tag at the N-terminus diluted with a 50 mM Tris-HCl pH 7.4 was added to a quartz sensor and treated for one minute to be immobilized. […] The measurement was performed in a 500 μL liquid under conditions of 25° C. and 1000 rpm for three minutes. After the measurement, Kd, kon, and koff were each calculated with AQUA 2.0 software (Initium).
FABP3 and various mutants of SynP130-140 were interacted in the same manner as in Example 1. The measurement was performed by adding each peptide at any concentration to the immobilized FABP3.
The detailed experimental method is as described in the method of Example 1.

[1] = target: α-synuclein and FABP3 (Syn-FABP3 complex) (Homo sapiens, UniProt P05413); assay: Thioflavin T fluorescence / TEM observation of α-synuclein amyloid fibril formation with FABP3 and peptide; format: biochemical
Chain of α-synuclein and FABP3 (Syn-FABP3 complex) (P05413 whole entry, species assumed, one chain of several): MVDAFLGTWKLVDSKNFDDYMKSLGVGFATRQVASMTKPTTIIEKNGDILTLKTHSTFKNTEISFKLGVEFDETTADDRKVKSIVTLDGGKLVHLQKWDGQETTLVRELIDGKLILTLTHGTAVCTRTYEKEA
Procedure: An ARVO X4 (Perkin Elmer) was used for shaking and measuring fluorescence values over time in the fibril formation process of Syn. For the measurement, the samples were added to a 96-well plate (8×12-well plate; Greiner, Kremsmuenster, Austria) to give 150 μL/well, and the fluorescence (Ex of 440 nm and Em of 486 nm) was measured every 15 minutes while the well plate was continuously shaken at 37° C. […] Samples after 1800 minutes obtained after the measurement were measured with a transmission electron microscope (TEM) (JEOL JEM-1400 Plus). To a collodion membrane (400 mesh; Nisshin EM, Tokyo, Japan), 10 μL of the sample was added and allowed to stand at room temperature for two minutes, then washed with 5 μL of purified water, stained with 5 μL of a 10% EM stain solution for one minute, and then washed with 5 μL of purified water. This was air-dried overnight and then measured.
The thio-T measurement and the measurement with a TEM were performed in the same manner as in Example 3.
The thio-T measurement and the measurement with a TEM were performed in the same manner as in Example 3. The Thio-T measurement was performed for samples to each of which SynP130-140 was added at the beginning (0 hour), after 3 hours, 8 hours, or 24 hours.

[2] = test system: cultured dopaminergic nerve cells; assay: Antagonistic effect of C-terminal peptide on uptake of ATTO-550-labeled α-synuclein monomer into cultured dopaminergic nerves; format: cell-based, mouse; details: 1 μM peptide with 1 μM ATTO-550-labeled α-synuclein monomer, 48 hours; p<0.0001 vs control
Procedure: Cultured dopaminergic nerves were prepared according to the method (Kawahata et al. 2019) already described. Specifically, the uterus was aseptically removed from a C57BL6N mouse on day 15.5 of pregnancy by abdominal midline incision under deep isoflurane anesthesia, and the fetal mesencephalon was removed in ice-cold Hank's balanced salt solution (HBSS) under a stereomicroscope. The tissue was then dispersed by treatment with a nerve cell suspension (Sumitomo Bakelite) at 37° C. for 30 minutes, the dispersion was centrifuged at 1000 rpm for 5 minutes, and then the supernatant was discarded. The cell pellet was dispersed, then a removal solution (Sumitomo Bakelite) was added, and the mixture was centrifuged at 900 rpm for 5 minutes. The supernatant was then removed, the pellet was suspended in Eagle's minimal essential medium (EMEM) and seeded on a poly-L-lysine-coated chamber plate (Iwaki). […] Values are mean±SEM (n>20), and one-way ANOVA with Tukey test was performed for all the groups. The conceptual diagram of the synthesized α-synuclein is illustrated in C.

Substance: SynP130-140: peptide of the C-terminal region of human α-synuclein composed of the 130th to 140th amino acids (EEGYQDYEPEA; partial peptide of alpha-synuclein)
affinity for FABP3 compared with Syn (FABP3): stronger affinity for FABP3
binding to FABP3 (FABP3; QCM): bound to FABP3 in a dose dependent manner
amyloid fibril aggregate formation of α-synuclein ([1]; FABP3, α-synuclein and peptide added simultaneously, 1:1:1 molar ratio (69 μM each), Thio-T, 37° C.): forms amyloid tibril aggregates
release of Syn from the Syn-FABP3 complex and amyloid fibril formation ([1]; equimolar peptide added to the preformed 1:1 complex at 0, 3, 8 or 24 hours): releases Syn from FABP3

Substance: Y133F/Y136F: SynP130-140 mutant in which tyrosine at position 133 and position 136 were both changed to phenylalanine (EEGFQDFEPEA)
binding affinity for FABP3 relative to the natural sequence (SynP130-140) (FABP3; QCM): 2 fold

Substance: SynP73-96: peptide of the NAC region of human α-synuclein, 73th to 96th amino acids [reference compound]
binding to FABP3 (FABP3; QCM): hardly bound to FABP3

Substance: SynP2-10: peptide of the N-terminal region of human α-synuclein, second to tenth amino acids (DVFMKGLSKA; partial peptide of alpha-synuclein) [reference compound]
binding to FABP3 (FABP3; QCM): hardly bound to FABP3

Substance: FABP3: fatty acid-binding protein 3
aggregation of synuclein on adding FABP3 alone ([1]; equimolar FABP3 added to α-synuclein, no peptide, Thio-T): completely suppressed the aggregation of synuclein

Substance: Y133F/Y136W: SynP130-140 mutant with tyrosine 133 changed to phenylalanine and tyrosine 136 changed to tryptophan (EEGFQDWEPEA)
binding affinity for FABP3 compared with the natural sequence (SynP130-140), in words (FABP3; QCM): failed to further strengthen the binding affinity

Substance: EGYQDYEPEA [10aa]
intracellular uptake of fluorescently labeled α-synuclein (ATTO fluorescence intensity) [2]: inhibited the intracellular uptake

The next lines start with results.

binding affinity for FABP3 compared with the natural sequence (SynP130-140), in words (FABP3; QCM): about the same affinity
Substance: Y136W: peptide in which the 136th tyrosine in SynP130-140 was replaced by tryptophan (EEGYQDWEPEA)

Kd (FABP3; QCM, binding to FABP3): 0.1 nM
binding affinity for FABP3 relative to the natural sequence (SynP130-140) (FABP3; QCM): two-fold stronger
Substance: EEGFQDYEPEA [Y133F]
amyloid aggregate formation of α-synuclein, concentration dependence ([1]; peptide at 0.1, 0.5 or 1 equivalent to 69 μM α-synuclein and 69 μM FABP3): preferentially binds to FABP3 in a dose-dependent manner

binding affinity for FABP3 compared with the natural sequence (SynP130-140), in words (FABP3; QCM): did not change the binding affinity
Substance: Y133W/Y136W: peptide in which the 133rd and 136th tyrosines in SynP130-140 were replaced by tryptophans (EEGWQDWEPEA)

binding affinity for FABP3 compared with the natural sequence (SynP130-140), in words (FABP3; QCM): about the same affinity
Substance: Y136F: SynP130-140 mutant in which tyrosine at position 136 was changed to phenylalanine (EEGYQDFEPEA)
